Reference: patent US7556950 (Takeda / Millennium, dated 2009)

Target: the molecule itself
Experiment: analytical size-exclusion chromatography; self-association (homodimer) of the purified catalytic domain

B1: recombinant catalytic domain of human phosphodiesterase 4-D3 (PDE4-D3), residues 253-580 of SEQ. ID No. 1, after removal of the N-terminal 6x-histidine tag … (enzyme)
chain: GAMDPTEQEDVLAKELEDVNKWGLHVFRIAELSGNRPLTVIMHTIFQERDLLKTFKIPVDTLITYLMTLEDHYHADVAYHNNIHAADVVQSTHVLLSTPALEAVFTDLEILAAIFASAIHDVDHPGVSNQFLINTNSELALMYNDSSVLENHHLAVGFKLLQEENCDIFQNLTKKQRQSLRKMVIDIVLATDMSKHMNLLADLKTMVETKKVTSSGVLLLDNYSDRIQVLQNMVHCADLSNPTKPLQLYRQWTDRIMEEFFRQGDRERERGMEISPMCDKHNASVEKSQVGFIDYIVHPLWETWADLVHPDAQDILDTLEDNREWYQSTIPQSP
notes: The limits 24-357 come from the claims, which define the protein of the Rolipram complex this way; The purified protein was buffer-exchanged with a 2-molar excess of the small molecule Rolipram; Expressed in Hi5 insect cells; also called PDE4D3 catalytic domain; purified PDE4-D3
- binding result: binds
